# Test results as given in US20140087995A1 (published 2014).
# Numbered stars: 1 amine (or outer) side, 2 acyl side, 3 side chain; on linkers, the order of the positions; unused ones are H or OH. Bridge positions count the residues as written; N and C are the ends. Side chains are listed from the residue outwards. Ends that are not written are not given here. * marks the point of attachment. C20 diacid = O=C(O)CCCCCCCCCCCCCCCCCCC(=O)*; γGlu = O=C(O)[C@H](CCC(=O)[*:2])N[*:1]
# T1: rat calcitonin receptor (rat, UniProt P32214 25-516)
# T1 construct: whole, on cells; Membranes prepared from transiently transfected BHK tk'ts 13 cells; also called rCTR; rat calcitonin (a) receptor
# T1 sequence (looked up): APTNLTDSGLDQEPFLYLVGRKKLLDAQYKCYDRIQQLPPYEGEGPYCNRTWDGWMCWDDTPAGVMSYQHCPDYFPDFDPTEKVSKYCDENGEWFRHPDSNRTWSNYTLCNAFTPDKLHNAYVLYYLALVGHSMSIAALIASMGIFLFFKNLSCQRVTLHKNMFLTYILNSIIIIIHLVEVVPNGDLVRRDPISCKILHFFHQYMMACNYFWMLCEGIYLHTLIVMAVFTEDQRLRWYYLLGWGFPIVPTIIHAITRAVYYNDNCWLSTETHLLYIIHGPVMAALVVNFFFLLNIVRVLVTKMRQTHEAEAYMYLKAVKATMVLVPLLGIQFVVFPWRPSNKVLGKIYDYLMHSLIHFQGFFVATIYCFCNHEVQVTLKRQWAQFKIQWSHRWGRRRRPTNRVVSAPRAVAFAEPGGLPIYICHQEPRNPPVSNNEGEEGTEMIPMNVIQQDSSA
# T2: rat amylin receptor (rat calcitonin receptor + rat RAMP 3) (rat, UniProt P32214 25-516; Q9JJ73 23-147)
# T2 construct: whole, on cells; Membranes prepared from transiently transfected BHK tk'ts 13 cells; also called rAmylin-R; rat amylin 3(a) receptor
# T2 sequence (looked up) 1: T1 sequence (looked up)
# T2 sequence (looked up) 2: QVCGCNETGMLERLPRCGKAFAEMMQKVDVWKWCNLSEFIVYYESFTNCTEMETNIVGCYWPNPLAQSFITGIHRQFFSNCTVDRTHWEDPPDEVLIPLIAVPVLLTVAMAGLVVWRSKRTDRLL
# T3: human calcitonin receptor (human, UniProt P30988 25-474)
# T3 construct: whole, on cells; Membranes from stably transfected BHK cells; also called hCTR; hCT
# T3 sequence (looked up): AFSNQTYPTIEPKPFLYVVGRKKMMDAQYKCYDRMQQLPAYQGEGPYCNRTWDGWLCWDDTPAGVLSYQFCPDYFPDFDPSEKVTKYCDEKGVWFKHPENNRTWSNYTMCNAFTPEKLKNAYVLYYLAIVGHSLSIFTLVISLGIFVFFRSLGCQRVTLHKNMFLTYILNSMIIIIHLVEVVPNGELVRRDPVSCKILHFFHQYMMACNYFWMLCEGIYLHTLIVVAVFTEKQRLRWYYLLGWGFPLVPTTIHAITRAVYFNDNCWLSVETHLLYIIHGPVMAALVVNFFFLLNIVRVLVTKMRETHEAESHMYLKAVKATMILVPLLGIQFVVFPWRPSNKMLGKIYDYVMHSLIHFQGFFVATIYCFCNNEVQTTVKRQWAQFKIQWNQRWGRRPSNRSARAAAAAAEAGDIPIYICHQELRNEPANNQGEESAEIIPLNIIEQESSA
# B1: N^ε1-[(4S)-4-carboxy-4-(19-carboxynonadecanoylamino)butanoyl]-[Glu14,Arg17,Pro21,Pro27,His35]-h-amylin (peptide)
# peptide: K([γGlu-C20 diacid])CNTATCATQRLAEFLRHSSPNFGAIPSSTNVGSHTY-NH2
# modifications: disulfide 2-7; N-terminus assumed
# SMILES: CC[C@H](C)[C@H](NC(=O)[C@H](C)NC(=O)CNC(=O)[C@H](Cc1ccccc1)NC(=O)[C@H](CC(N)=O)NC(=O)[C@@H]1CCCN1C(=O)[C@H](CO)NC(=O)[C@H](CO)NC(=O)[C@H](Cc1c[nH]cn1)NC(=O)[C@H](CCCNC(=N)N)NC(=O)[C@H](CC(C)C)NC(=O)[C@H](Cc1ccccc1)NC(=O)[C@H](CCC(=O)O)NC(=O)[C@H](C)NC(=O)[C@H](CC(C)C)NC(=O)[C@H](CCCNC(=N)N)NC(=O)[C@H](CCC(N)=O)NC(=O)[C@@H](NC(=O)[C@H](C)NC(=O)[C@@H]1CSSC[C@H](NC(=O)[C@@H](N)CCCCNC(=O)CC[C@H](NC(=O)CCCCCCCCCCCCCCCCCCC(=O)O)C(=O)O)C(=O)N[C@@H](CC(N)=O)C(=O)N[C@@H]([C@@H](C)O)C(=O)N[C@@H](C)C(=O)N[C@@H]([C@@H](C)O)C(=O)N1)[C@@H](C)O)C(=O)N1CCC[C@H]1C(=O)N[C@@H](CO)C(=O)N[C@@H](CO)C(=O)N[C@H](C(=O)N[C@@H](CC(N)=O)C(=O)N[C@H](C(=O)NCC(=O)N[C@@H](CO)C(=O)N[C@@H](Cc1c[nH]cn1)C(=O)N[C@H](C(=O)N[C@@H](Cc1ccc(O)cc1)C(N)=O)[C@@H](C)O)C(C)C)[C@@H](C)O
# B2: N^ε1-[(4S)-4-carboxy-4-(19-carboxynonadecanoylamino)butanoyl]-[Glu14,Arg17,Pro21,Pro27,Pro34,Arg35]-h-amylin (peptide)
# peptide: K([γGlu-C20 diacid])CNTATCATQRLAEFLRHSSPNFGAIPSSTNVGPRTY-NH2
# modifications: disulfide 2-7; N-terminus assumed
# SMILES: CC[C@H](C)[C@H](NC(=O)[C@H](C)NC(=O)CNC(=O)[C@H](Cc1ccccc1)NC(=O)[C@H](CC(N)=O)NC(=O)[C@@H]1CCCN1C(=O)[C@H](CO)NC(=O)[C@H](CO)NC(=O)[C@H](Cc1c[nH]cn1)NC(=O)[C@H](CCCNC(=N)N)NC(=O)[C@H](CC(C)C)NC(=O)[C@H](Cc1ccccc1)NC(=O)[C@H](CCC(=O)O)NC(=O)[C@H](C)NC(=O)[C@H](CC(C)C)NC(=O)[C@H](CCCNC(=N)N)NC(=O)[C@H](CCC(N)=O)NC(=O)[C@@H](NC(=O)[C@H](C)NC(=O)[C@@H]1CSSC[C@H](NC(=O)[C@@H](N)CCCCNC(=O)CC[C@H](NC(=O)CCCCCCCCCCCCCCCCCCC(=O)O)C(=O)O)C(=O)N[C@@H](CC(N)=O)C(=O)N[C@@H]([C@@H](C)O)C(=O)N[C@@H](C)C(=O)N[C@@H]([C@@H](C)O)C(=O)N1)[C@@H](C)O)C(=O)N1CCC[C@H]1C(=O)N[C@@H](CO)C(=O)N[C@@H](CO)C(=O)N[C@H](C(=O)N[C@@H](CC(N)=O)C(=O)N[C@H](C(=O)NCC(=O)N1CCC[C@H]1C(=O)N[C@@H](CCCNC(=N)N)C(=O)N[C@H](C(=O)N[C@@H](Cc1ccc(O)cc1)C(N)=O)[C@@H](C)O)C(C)C)[C@@H](C)O
# B3: N^ε1-[(4S)-4-carboxy-4-(19-carboxynonadecanoylamino)butanoyl]-[His14,Arg17,Pro21,Pro27,Pro31,Pro34]-h-amylin (peptide)
# peptide: K([γGlu-C20 diacid])CNTATCATQRLAHFLRHSSPNFGAIPSSTPVGPNTY-NH2
# modifications: disulfide 2-7; N-terminus assumed
# SMILES: CC[C@H](C)[C@H](NC(=O)[C@H](C)NC(=O)CNC(=O)[C@H](Cc1ccccc1)NC(=O)[C@H](CC(N)=O)NC(=O)[C@@H]1CCCN1C(=O)[C@H](CO)NC(=O)[C@H](CO)NC(=O)[C@H](Cc1c[nH]cn1)NC(=O)[C@H](CCCNC(=N)N)NC(=O)[C@H](CC(C)C)NC(=O)[C@H](Cc1ccccc1)NC(=O)[C@H](Cc1c[nH]cn1)NC(=O)[C@H](C)NC(=O)[C@H](CC(C)C)NC(=O)[C@H](CCCNC(=N)N)NC(=O)[C@H](CCC(N)=O)NC(=O)[C@@H](NC(=O)[C@H](C)NC(=O)[C@@H]1CSSC[C@H](NC(=O)[C@@H](N)CCCCNC(=O)CC[C@H](NC(=O)CCCCCCCCCCCCCCCCCCC(=O)O)C(=O)O)C(=O)N[C@@H](CC(N)=O)C(=O)N[C@@H]([C@@H](C)O)C(=O)N[C@@H](C)C(=O)N[C@@H]([C@@H](C)O)C(=O)N1)[C@@H](C)O)C(=O)N1CCC[C@H]1C(=O)N[C@@H](CO)C(=O)N[C@@H](CO)C(=O)N[C@H](C(=O)N1CCC[C@H]1C(=O)N[C@H](C(=O)NCC(=O)N1CCC[C@H]1C(=O)N[C@@H](CC(N)=O)C(=O)N[C@H](C(=O)N[C@@H](Cc1ccc(O)cc1)C(N)=O)[C@@H](C)O)C(C)C)[C@@H](C)O
# B4: N^ε1-[(4S)-4-carboxy-4-[[(4S)-4-carboxy-4-(19-carboxynonadecanoylamino)butanoyl]amino]butanoyl]-[Arg17,Pro21,Pro27,Pro31,Pro34,Arg35]-h-amylin (peptide)
# peptide: K([γGlu-γGlu-C20 diacid])CNTATCATQRLANFLRHSSPNFGAIPSSTPVGPRTY-NH2
# modifications: disulfide 2-7; N-terminus assumed
# SMILES: CC[C@H](C)[C@H](NC(=O)[C@H](C)NC(=O)CNC(=O)[C@H](Cc1ccccc1)NC(=O)[C@H](CC(N)=O)NC(=O)[C@@H]1CCCN1C(=O)[C@H](CO)NC(=O)[C@H](CO)NC(=O)[C@H](Cc1c[nH]cn1)NC(=O)[C@H](CCCNC(=N)N)NC(=O)[C@H](CC(C)C)NC(=O)[C@H](Cc1ccccc1)NC(=O)[C@H](CC(N)=O)NC(=O)[C@H](C)NC(=O)[C@H](CC(C)C)NC(=O)[C@H](CCCNC(=N)N)NC(=O)[C@H](CCC(N)=O)NC(=O)[C@@H](NC(=O)[C@H](C)NC(=O)[C@@H]1CSSC[C@H](NC(=O)[C@@H](N)CCCCNC(=O)CC[C@H](NC(=O)CC[C@H](NC(=O)CCCCCCCCCCCCCCCCCCC(=O)O)C(=O)O)C(=O)O)C(=O)N[C@@H](CC(N)=O)C(=O)N[C@@H]([C@@H](C)O)C(=O)N[C@@H](C)C(=O)N[C@@H]([C@@H](C)O)C(=O)N1)[C@@H](C)O)C(=O)N1CCC[C@H]1C(=O)N[C@@H](CO)C(=O)N[C@@H](CO)C(=O)N[C@H](C(=O)N1CCC[C@H]1C(=O)N[C@H](C(=O)NCC(=O)N1CCC[C@H]1C(=O)N[C@@H](CCCNC(=N)N)C(=O)N[C@H](C(=O)N[C@@H](Cc1ccc(O)cc1)C(N)=O)[C@@H](C)O)C(C)C)[C@@H](C)O
# Biological target: T1, rat calcitonin receptor
# Assay: SPA competition vs 125I-calcitonin, membranes (Assay VIII)
row,IC50 [nM],Binder
1,26.3,B1
2,5.43,K([γGlu-C20 diacid])CNTATCATQRLAEFLRHSSPNFGAIPSSTNVGPHTY-NH2 (disulfide 2-7)
3,223,"K([γGlu-γGlu-C20 diacid])CNTATCATQRLADFLRHSSPNFGAIPSSTNVGPRTY-NH2 (disulfide 2-7, also called compound 130)"
4,31.9,K([γGlu-γGlu-C20 diacid])CNTATCATQRLADFLRHSSPNFGAIPSSTNVGPETY-NH2 (disulfide 2-7)
5,15.4,B2
6,9.05,B3
7,52.4,B4

# Biological target: T2, rat amylin receptor (rat calcitonin …)
# Assay: SPA competition vs 125I-rat amylin, membranes (Assay VI)
row,IC50 [nM],Binder
1,1.16,B1
2,0.104,K([γGlu-C20 diacid])CNTATCATQRLAEFLRHSSPNFGAIPSSTNVGPHTY-NH2 (disulfide 2-7)
3,0.93,"K([γGlu-γGlu-C20 diacid])CNTATCATQRLADFLRHSSPNFGAIPSSTNVGPRTY-NH2 (disulfide 2-7, also called compound 130)"
4,0.324,K([γGlu-γGlu-C20 diacid])CNTATCATQRLADFLRHSSPNFGAIPSSTNVGPETY-NH2 (disulfide 2-7)
5,0.339,B2
6,0.125,B3
7,0.381,B4

# Biological target: T3, human calcitonin receptor
# Assay: ratio of IC50 on human calcitonin receptor to IC50 on human amylin receptor
# Outline: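 Scintillation proximity competition binding on cell membranes at 35 ng/μL with SPA beads, in 50 mM Hepes pH 7.4, 1 mM CaCl2, 5 mM MgCl₂, 0.1% OA, 0.02% Tween20. Incubated 120 min at 25° C with shaking. IC₅₀ from one-site competition fit.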
row,Ratio hCT/hAmylin binding,Binder
1,26.4,B1
2,21.2,K([γGlu-C20 diacid])CNTATCATQRLAEFLRHSSPNFGAIPSSTNVGPHTY-NH2 (disulfide 2-7)
3,280,"K([γGlu-γGlu-C20 diacid])CNTATCATQRLADFLRHSSPNFGAIPSSTNVGPRTY-NH2 (disulfide 2-7, also called compound 130)"
4,49.8,K([γGlu-γGlu-C20 diacid])CNTATCATQRLADFLRHSSPNFGAIPSSTNVGPETY-NH2 (disulfide 2-7)
5,38.6,B2
6,24.8,B3
7,48.6,B4

# Biological target: T1, rat calcitonin receptor
# Assay: ratio of IC50 on rat calcitonin receptor to IC50 on rat amylin receptor
row,Ratio rCT/rAmylin binding,Binder
1,22.7,B1
2,52.2,K([γGlu-C20 diacid])CNTATCATQRLAEFLRHSSPNFGAIPSSTNVGPHTY-NH2 (disulfide 2-7)
3,240,"K([γGlu-γGlu-C20 diacid])CNTATCATQRLADFLRHSSPNFGAIPSSTNVGPRTY-NH2 (disulfide 2-7, also called compound 130)"
4,98.5,K([γGlu-γGlu-C20 diacid])CNTATCATQRLADFLRHSSPNFGAIPSSTNVGPETY-NH2 (disulfide 2-7)
5,45.5,B2
6,72.4,B3
7,137,B4
